Results on 5 molecules are retold here after publication PMC7335425 (Cell, 2020).

A word on the stoichiometry N: it is a count of units in the complex or per binding partner.

What all share (assay): negative stain EM
Data set [1] deals with LetB ΔPLL3 mutant, TM helix deleted (E. coli) (UniProt P76272).
The target of data set [2] is LetB six-ring truncation mutant (ring 6 removed), TM helix deleted (E. coli) (UniProt P76272).
The target in data set [3] is MCE protein with six MCE domains from Pseudomonas aeruginosa (Pseudomonas aeruginosa).
Data set [4] concerns the target LetB ΔPLL2 mutant, TM helix deleted (E. coli) (UniProt P76272).
The data set “negative stain EM” deals with the molecule itself.

Molecule “LetB ΔPLL3 mutant, TM helix deleted (from UniProt P76272 43-877) (domain or fragment)” displayed a stoichiometry N in data set [1] of 6. In data set [2], “LetB six-ring truncation mutant (ring 6 removed), TM helix deleted (from UniProt P76272 43-877) (domain or fragment)” registered a stoichiometry N of 6. For the molecule “MCE protein with six MCE domains from Pseudomonas aeruginosa (natural protein)”, the stoichiometry N in data set [3] was determined as 6. Molecule “LetB ΔPLL2 mutant, TM helix deleted (from UniProt P76272 43-877) (domain or fragment)” yielded a stoichiometry N in data set [4] of 6.

B1: LetB L359N, TM helix deleted (domain or fragment, E. coli, UniProt P76272 43-877, looked up)
chain: QDRGNTVTIDFMSADGIVPGRTPVRYQGVEVGTVQDISLSDDLRKIEVKVSIKSDMKDALREETQFWLVTPKASLAGVSGLDALVGGNYIGMMPGKGKEQDHFVALDTQPKYRLDNGDLMIHLQAPDLGSLNSGSLVYFRKIPVGKVYDYAINPNKQGVVIDVLIERRFTDLVKKGSRFWNVSGVDANVSISGAKVKLESLAALVNGAIAFDSPEESKPAEAEDTFGLYEDLAHSQRGVIIKLELPSGAGLTADSTPLMYQGLEVGQLTKLDLNPGGKVTGEMTVDPSVVTLLRENTRIELRNPKLSLSDANLSALNTGKTFELVPGDGEPRKEFVVVPGEKALLHEPDVLTLTLTAPESYGIDAGQPLILHGVQVGQVIDRKLTSKGVTFTVAIEPQHRELVKGDSKFVVNSRVDVKVGLDGVEFLGASASEWINGGIRILPGDKGEMKASYPLYANLEKALENSLSDLPTTTVSLSAETLPDVQAGSVVLYRKFEVGEVITVRPRANAFDIDLHIKPEYRNLLTSNSVFWAEGGAKVQLNGSGLTVQASPLSRALKGAISFDNLSGASASQRKGDKRILYASETAARAVGGQITLHAFDAGKLAVGMPIRYLGIDIGQIQTLDLITARNEVQAKAVLYPEYVQTFARGGTRFSVVTPQISAAGVEHLDTILQPYINVEPGRGNPRRDFELQEATITDSRYLDGLSIIVEAPEAGSLGIGTPVLFRGLEVGTVTGMTLGTLSDRVMIAMRISKRYQHLVRNNSVFWLASGYSLDFGLTGGVVKTGTFNQFIRGGIAFATPPGTPLAPKAQEGKHFLLQESEPKEWREWGTALPK
On to B1, for which, in “negative stain EM”, the “stoichiometry N” value is 6.
